Values of other authors, collected in article PMC11301627.

Target: Asp133 (UniProt position 133, SNFHFDTTAAH)
Assay: kinetics
Conditions: wild-type enzyme, steady-state reaction with L-Trp

In the case of “Tryptophan indole-lyase (TIL, tryptophanase) (Proteus vulgaris)”, the pKa is given as 5.3.
